Experimental data as given in publication PMC9022998.

Tests used:
[1] = immunoblot of media and lysates, LMAN1 KO vs WT 293T; conditions: glycan lost; control: wild-type AAT
[2] = cycloheximide chase, anti-FLAG immunoblot, secretion rate; conditions: glycan lost; control: wild-type AAT in WT 293T cells
[3] = immunoblot of intracellular AAT in 293T lysates; conditions: glycan lost; control: wild-type AAT

| Substance | other: LMAN1-dependence of secretion [1] | expression_or_secretion [2] | localisation_or_trafficking [3] |
| --- | --- | --- | --- |
| α1-antitrypsin (AAT): N271Q | no change | no change | – |
| α1-antitrypsin (AAT): N107Q | abolishes | decreases | increases |
| α1-antitrypsin (AAT): N70Q | no change | no change | – |
